Data: US20170008928A1, “NOVEL PEPTIDES AND PEPTIDE DERIVATIVES AND USES THEREOF” (Novo Nordisk A/S, priority 2015, published 2017)
Starred links: 1 amine or outer side, 2 acyl side, 3 side chain; linkers in the order of their positions; H or OH if unused. Non-standard residues stand in square brackets, D forms with d. Residues, ends and D or L forms follow the SMILES beside them. No end group written: not given here. *: point of attachment. sY = N[C@@H](Cc1ccc(OS(=O)(=O)O)cc1)C(=O)O; C18 diacid = O=C(O)CCCCCCCCCCCCCCCCC(=O)*; C16 diacid = O=C(O)CCCCCCCCCCCCCCC(=O)*; γGlu = O=C(O)[C@H](CCC(=O)[*:2])N[*:1]; C14 diacid = O=C(O)CCCCCCCCCCCCC(=O)*; NMeF = CN[C@@H](Cc1ccccc1)C(=O)O; dNMeD = CN[C@H](CC(=O)O)C(=O)O; Nle = CCCC[C@H](N)C(=O)O; AEEA = NCCOCCOCC(=O)O

B1: Glu-sTyr-Leu-Gly-Trp-Nle-DMeAsp-Phe-amide (peptide)
peptide: E[sY]LGW[Nle][dNMeD]F-NH2
modifications: N-terminus assumed
SMILES: CCCC[C@H](NC(=O)[C@H](Cc1c[nH]c2ccccc12)NC(=O)CNC(=O)[C@H](CC(C)C)NC(=O)[C@H](Cc1ccc(OS(=O)(=O)O)cc1)NC(=O)[C@@H](N)CCC(=O)O)C(=O)N(C)[C@H](CC(=O)O)C(=O)N[C@@H](Cc1ccccc1)C(N)=O
notes: X = Nle or Nal

Target: T1, human cholecystokinin-2 receptor (CCK-2R) (Homo sapiens, UniProt P32239)
T1 construct: host or cells: 1321-N1 cells (plasma membranes prepared by Evotec AG Hamburg)
T1 sequence (P32239 1-447): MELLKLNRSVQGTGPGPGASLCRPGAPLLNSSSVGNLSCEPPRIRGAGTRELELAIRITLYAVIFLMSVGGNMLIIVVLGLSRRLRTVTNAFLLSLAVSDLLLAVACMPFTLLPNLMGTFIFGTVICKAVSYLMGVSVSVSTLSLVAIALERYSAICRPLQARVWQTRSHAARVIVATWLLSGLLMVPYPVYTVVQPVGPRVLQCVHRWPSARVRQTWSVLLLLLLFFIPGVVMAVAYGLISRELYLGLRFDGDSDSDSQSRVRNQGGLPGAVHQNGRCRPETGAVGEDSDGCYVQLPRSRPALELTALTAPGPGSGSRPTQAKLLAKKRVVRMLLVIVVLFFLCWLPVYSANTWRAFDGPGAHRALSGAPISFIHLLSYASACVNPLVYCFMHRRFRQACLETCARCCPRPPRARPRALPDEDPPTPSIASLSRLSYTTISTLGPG
Assay: In vitro potency on CCK-2R, whole cell functional assay (IP1 accumulation, IP-One HTRF)
Assay type: cell-based
Conditions: not given

Work on CCCC[C@H](NC(=O)[C@H](Cc1c[nH]c2ccccc12)NC(=O)CNC(=O)[C@H](CC(C)C)NC(=O)[C@H](Cc1ccc(OS(=O)(=O)O)cc1)NC(=O)[C@H](CC(=O)O)NC(=O)COCCOCCNC(=O)COCCOCCNC(=O)CC[C@H](NC(=O)CCCCCCCCCCCCCCCCC(=O)O)C(=O)O)C(=O)N(C)[C@H](CC(=O)O)C(=O)N(C)[C@@H](Cc1ccccc1)C(N)=O [Example 9, 2-[2-[2-[[2-[2-[2-[[(4S)-4-Carboxy-4-(17-carboxyheptadecanoylamino)butanoyl]amino]ethoxy]ethoxy]acetyl]amino]ethoxy]ethoxy]acetyl-Asp-sTyr-Leu-Gly-Trp-Nle-DMeAsp-MePhe-amide] yielded an EC50 of 170 nM.

Same assay, conditions: 1321-N1 cells stably expressing CCK-2R; IP1 accumulation; highest dose tested 1×10^6 pM; read-out: EC50 (CCK-2R)

Point of comparison: CCCC[C@H](NC(=O)[C@H](Cc1c[nH]c2ccccc12)NC(=O)CNC(=O)[C@H](CC(C)C)NC(=O)[C@H](Cc1ccc(OS(=O)(=O)O)cc1)NC(=O)[C@@H](N)CC(=O)O)C(=O)N(C)[C@H](CC(=O)O)C(=O)N(C)[C@@H](Cc1ccccc1)C(N)=O [Example 60, Asp-sTyr-Leu-Gly-Trp-Nle-DMeAsp-MePhe-amide], EC50 380 nM. Against it:
- CCCC[C@H](NC(=O)[C@H](Cc1ccc(OS(=O)(=O)O)cc1)NC(=O)[C@H](CC(=O)O)NC(=O)COCCOCCNC(=O)COCCOCCNC(=O)CC[C@H](NC(=O)CCCCCCCCCCCCCCCCC(=O)O)C(=O)O)C(=O)NCC(=O)N[C@@H](Cc1c[nH]c2ccccc12)C(=O)N[C@@H](CCCC)C(=O)N(C)[C@H](CC(=O)O)C(=O)N[C@@H](Cc1c[nH]c2ccccc12)C(N)=O [Example 1, 2-[2-[2-[[2-[2-[2-[[(4S)-4-Carboxy-4-(17-carboxyheptadecanoylamino)butanoyl]amino]ethoxy]ethoxy]acetyl]amino]ethoxy]ethoxy]acetyl-Asp-sTyr-Nle-Gly-Trp-Nle-DMeAsp-Trp-amide] ({C18 diacid-γGlu-AEEA-AEEA}-D[sY][Nle]GW[Nle][dNMeD]W-NH2) — higher, > 1000 nM
- CCCC[C@H](NC(=O)[C@H](Cc1c[nH]c2ccccc12)NC(=O)CNC(=O)[C@H](CC(C)C)NC(=O)[C@H](Cc1ccc(OS(=O)(=O)O)cc1)NC(=O)[C@H](CCC(=O)O)NC(=O)COCCOCCNC(=O)COCCOCCNC(=O)CC[C@H](NC(=O)CCCCCCCCCCCCC(=O)O)C(=O)O)C(=O)N(C)[C@H](CC(=O)O)C(=O)N(C)[C@@H](Cc1ccccc1)C(N)=O [Example 36, 2-[2-[2-[[2-[2-[2-[[(4S)-4-Carboxy-4-(13-carboxytridecanoylamino)butanoyl]amino]ethoxy]ethoxy]acetyl]amino]ethoxy]ethoxy]acetyl-Glu-sTyr-Leu-Gly-Trp-Nle-DMeAsp-MePhe-amide] ({C14 diacid-γGlu-AEEA-AEEA}-E[sY]LGW[Nle][dNMeD][NMeF]-NH2) — 2.5-fold lower, 150 nM
- CCCC[C@H](NC(=O)[C@H](Cc1c[nH]c2ccccc12)NC(=O)CNC(=O)[C@H](CC(C)C)NC(=O)[C@H](Cc1ccc(OS(=O)(=O)O)cc1)NC(=O)[C@H](CCC(=O)O)NC(=O)COCCOCCNC(=O)COCCOCCNC(=O)CC[C@H](NC(=O)CCCCCCCCCCCCCCC(=O)O)C(=O)O)C(=O)N(C)[C@H](CC(=O)O)C(=O)N(C)[C@@H](Cc1ccccc1)C(N)=O [Example 39, 2-[2-[2-[[2-[2-[2-[[(4S)-4-Carboxy-4-(15-carboxypentadecanoylamino)butanoyl]amino]ethoxy]ethoxy]acetyl]amino]ethoxy]ethoxy]acetyl-Glu-sTyr-Leu-Gly-Trp-Nle-DMeAsp-MePhe-amide] ({C16 diacid-γGlu-AEEA-AEEA}-E[sY]LGW[Nle][dNMeD][NMeF]-NH2) — 3.5-fold lower, 110 nM
- CCCC[C@H](NC(=O)[C@H](Cc1c[nH]c2ccccc12)NC(=O)CNC(=O)[C@H](Cc1c[nH]cn1)NC(=O)[C@H](Cc1ccc(OS(=O)(=O)O)cc1)NC(=O)[C@H](CC(=O)O)NC(=O)COCCOCCNC(=O)COCCOCCNC(=O)CC[C@H](NC(=O)CCCCCCCCCCCCCCCCC(=O)O)C(=O)O)C(=O)N(C)[C@H](CC(=O)O)C(=O)N(C)[C@@H](Cc1ccccc1)C(N)=O [Example 48, 2-[2-[2-[[2-[2-[2-[[(4S)-4-Carboxy-4-(17-carboxyheptadecanoylamino)butanoyl]amino]ethoxy]ethoxy]acetyl]amino]ethoxy]ethoxy]acetyl-Asp-sTyr-His-Gly-Trp-Nle-DMeAsp-MePhe-amide] ({C18 diacid-γGlu-AEEA-AEEA}-D[sY]HGW[Nle][dNMeD][NMeF]-NH2) — higher, > 1000 nM
- CCCC[C@H](NC(=O)[C@H](Cc1c[nH]c2ccccc12)NC(=O)CNC(=O)[C@H](CC(C)C)NC(=O)[C@H](Cc1ccc(OS(=O)(=O)O)cc1)NC(=O)[C@@H](CCC(=O)O)NC(=O)COCCOCCNC(=O)COCCOCCNC(=O)CC[C@H](NC(=O)CCCCCCCCCCCCCCCCC(=O)O)C(=O)O)C(=O)N(C)[C@H](CC(=O)O)C(=O)N(C)[C@@H](Cc1ccccc1)C(N)=O [Example 49, 2-[2-[2-[[2-[2-[2-[[(4S)-4-Carboxy-4-(17-carboxyheptadecanoylamino)butanoyl]amino]ethoxy]ethoxy]acetyl]amino]ethoxy]ethoxy]acetyl-DGlu-sTyr-Leu-Gly-Trp-Nle-DMeAsp-MePhe-amide] ({C18 diacid-γGlu-AEEA-AEEA}-[dE][sY]LGW[Nle][dNMeD][NMeF]-NH2) — 8.3-fold lower, 46 nM

Target: T2, human cholecystokinin-2 receptor (human, UniProt P32239 1-447)
T2 sequence (looked up): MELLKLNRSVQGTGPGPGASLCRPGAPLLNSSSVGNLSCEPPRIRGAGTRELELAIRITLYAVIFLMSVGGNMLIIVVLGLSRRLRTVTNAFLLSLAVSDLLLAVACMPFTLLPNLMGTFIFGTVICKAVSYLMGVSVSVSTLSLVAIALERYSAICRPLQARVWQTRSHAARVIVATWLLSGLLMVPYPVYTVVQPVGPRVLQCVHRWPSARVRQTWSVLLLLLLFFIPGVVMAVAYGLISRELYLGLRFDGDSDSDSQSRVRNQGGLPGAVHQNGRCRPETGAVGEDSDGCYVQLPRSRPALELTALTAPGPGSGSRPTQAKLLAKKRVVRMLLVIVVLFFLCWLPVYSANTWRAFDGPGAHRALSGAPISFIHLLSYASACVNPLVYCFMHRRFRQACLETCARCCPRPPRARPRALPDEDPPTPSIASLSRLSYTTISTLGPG
Assay: cell-based or functional assay
Conditions: not given

Point of comparison: “Glu-sTyr-Leu-Gly-Trp-Nle-DMeAsp-MePhe-amide (peptide)”, EC50 (CCK-2R) 920 nM. Against it:
- 2-[2-[2-[[2-[2-[2-[[(4S)-4-Carboxy-4-(13-carboxytridecanoylamino)butanoyl]amino]ethoxy]ethoxy]acetyl]amino]ethoxy]ethoxy]acetyl-Asp-Phe(4-sulfomethyl)-Leu-Gly-Trp-Nle-DMeAsp-MePhe-amide (peptide) — higher, > 1000 nM
- 2-[2-[2-[[2-[2-[2-[[(4S)-4-Carboxy-4-(15-carboxypentadecanoylamino)butanoyl]amino]ethoxy]ethoxy]acetyl]amino]ethoxy]ethoxy]acetyl-Asp-Phe(4-sulfomethyl)-Leu-Gly-Trp-Nle-DMeAsp-MePhe-amide (peptide) — higher, > 1000 nM
- 2-[2-[2-[[2-[2-[2-[[(4S)-4-Carboxy-4-(17-carboxyheptadecanoylamino)butanoyl]amino]ethoxy]ethoxy]acetyl]amino]ethoxy]ethoxy]acetyl-Asp-Phe(4-sulfomethyl)-Nle-Gly-Trp-Nle-DMeAsp-MePhe-amide (peptide) — higher, > 1000 nM
- 2-[2-[2-[[2-[2-[2-[[(4S)-4-Carboxy-4-(17-carboxyheptadecanoylamino)butanoyl]amino]ethoxy]ethoxy]acetyl]amino]ethoxy]ethoxy]acetyl-DAsp-Phe(4-sulfomethyl)-Nle-Gly-Trp-Nle-DMeAsp-MePhe-amide (peptide) — higher, > 1000 nM
- 2-[2-[2-[[2-[2-[2-[[(4S)-4-Carboxy-4-(17-carboxyheptadecanoylamino)butanoyl]amino]ethoxy]ethoxy]acetyl]amino]ethoxy]ethoxy]acetyl-DbAsp-Phe(4-sulfomethyl)-Nle-Gly-Trp-Nle-DMeAsp-MePhe-amide (peptide) — higher, > 1000 nM
- 2-[2-[2-[[2-[2-[2-[[(4S)-4-Carboxy-4-(17-carboxyheptadecanoylamino)butanoyl]amino]ethoxy]ethoxy]acetyl]amino]ethoxy]ethoxy]acetyl-bAsp-Phe(4-sulfomethyl)-Nle-Gly-Trp-Nle-DMeAsp-MePhe-amide (peptide) — higher, > 1000 nM
- 2-[2-[2-[[2-[2-[2-[[(4S)-4-Carboxy-4-(19-carboxynonadecanoylamino)butanoyl]amino]ethoxy]ethoxy]acetyl]amino]ethoxy]ethoxy]acetyl-Asp-Phe(4-sulfomethyl)-Leu-Gly-Trp-Nle-DMeAsp-MePhe-amide (peptide) — higher, > 1000 nM
- Asp-Phe(4-sulfomethyl)-Leu-Gly-Trp-Nle-DMeAsp-MePhe-amide (peptide) — higher, > 1000 nM
- Asp-sTyr-His-Gly-Trp-Nle-DMeAsp-MePhe-amide (peptide) — higher, > 1000 nM
- Asp-sTyr-Ile-Gly-Trp-Nle-DMeAsp-MePhe-amide (peptide) — higher, > 1000 nM
- Asp-sTyr-Leu-Gly-Trp-Nle-DMeAsp-Phe-amide (peptide) — higher, > 1000 nM
- Asp-sTyr-Nle-Gly-Trp-Nle-DMeAsp-MePhe-amide (peptide) — higher, > 1000 nM
- Asp-sTyr-Pro-Gly-Trp-Nle-DMeAsp-MePhe-amide (peptide) — higher, > 1000 nM
- DGlu-sTyr-Leu-Gly-Trp-Nle-DMeAsp-MePhe-amide (peptide) — higher, > 1000 nM
- B1 — higher, > 1000 nM
- {C18 diacid-γGlu-AEEA-AEEA}-E[sY]LGWQ[dNMeD]F-NH2 — higher, > 1000 nM
- E[sY]LGWQ[dNMeD]F-NH2 [Glu-sTyr-Leu-Gly-Trp-Gln-DMeAsp-Phe-amide] — higher, > 1000 nM
